In patent publication US20200179497A1:

Biological target: IVIg (Octagam)
Assay: cell-based or functional assay

| Binder | enzyme concentration giving an intense scIgG band on SDS-PAGE [ng/mL] | enzyme concentration giving mainly scIgG on SDS-PAGE [ng/mL] | further results |
| --- | --- | --- | --- |
| pCART202 (enzyme) MDDYQRNATEAYAKEVPHQITSVWTKGVTPLTPEQFTQGEDVIHAPYLAHQGWYDITKAFDGKDNLLCGAATAGNMLHWWFDQNKTEIEAYLSKHPEKQKIIFNNQELFDLKAAIDTKDSQTNSQLFNYFRDKAFPNLSARQLGVMPDLVLDMFINGYYLNVFKTQSTDVNRPYQDKDKRGGIFDAVFTRGDQTTLLTARHDLKNKGLNDISTIIKQELTEGRALALSHTYANVSISHVINLWGADFNAEGNLEAIYVTDSDANASIGMKKYFVGINAHGHVAISAKKIEGENIGAQVLGLFTLSSGKDIWQKLSGGGHHHHHH | 0.94 |  |  |
| pCART229 (enzyme) MDDYQRNATEAYAKEVPHQITSVWTKGVTPPEQFTQGEDVIHAPYLAHQGWYDITKAFDGKDNLLCGAATAGNMLHWWFDQNKTEIEAYLSKHPEKQKIIFRNQELFDLKAAIDTKDSQTNSQLFNYFRDKAFPNLSARQLGVMPDLVLDMFINGYYLNVFKTQSTDVNRPYQDKDKRGGIFDAVFTRGNQTTLLTARHDLKNKGLNDISTIIKQELTEGRALALSHTYANVSISHVINLWGADFNAEGNLEAIYVTDSDANASIGMKKYFVGINAHGHVAISAKKIEGENIGAQVLGLFTLSSGKDIWQKLSGGGHHHHHH |  |  | Conc. of enzyme, 1st IgG heavy chain, IgG to scIgG (gel): 1900 ng/mL; Conc. of enzyme, 2nd IgG heavy chain, scIgG to F(ab')2 (gel): 7500 ng/mL |
| pCART203 (enzyme) MDDYQRNATEAYAKEVPHQITSVWTKGVTPPEQFTQGEDVIHAPYLAHQGWYDITKAFDGKDNLLCGAATAGNMLHWWFDQNKTEIEAYLSKHPEKQKIIFNNQELFDLKAAIDTKDSQTNSQLFNYFRDKAFPNLSARQLGVMPDLVLDMFINGYYLNVFKTQSTDVNRPYQDKDKRGGIFDAVFTRGDQTTLLTARHDLKNKGLNDISTIIKQELTEGRALALSHTYANVSISHVINLWGADFNAEGNLEAIYVTDSDANASIGMKKYFVGINAHGHVAISAKKIEGENIGAQVLGLFTLSSGKDIWQKLSGGGHHHHHH | 0.94 | 0.9 |  |
| pCART210 (enzyme) MDDYQRNATEAYAKEVPHQITSVWTKGVTPPEQFTQGEDVIHAPYLANQGWYDITKAFDGKDNLLCGAATAGNMLHWWFDQNKTEIEAYLSKHPEKQKIIFRNQELFDLKEAIRTKDSQTNSQLFEYFRDKAFPYLSARQLGVMPDLVLDMFINGYYLNVFKTQSTDVKRPYQDKDKRGGIFDAVFTRGNQTTLLTARHDLKNKGLNDISTIIKEELTKGRALALSHTYANVSISHVINLWGADFNAEGNLEAIYVTDSDANASIGMKKYFVGINKHGHVAISAKKIEGENIGAQVLGLFTLSSGKDIWQKLNGGGHHHHHH |  | 0.9 |  |
| pCART208 (enzyme) MDDYQRNATEAYAKEVPHQITSVWTKGVTPPEQFTQGEDVIHAPYLAHQGWYDITKAFDGKDNLLCGAATAGNMLHWWFDQNKTEIEAYLSKHPEKQKIIIRNQELFDLKAAIDTKDSQTNSQLFNYFRDKAFPNLSARQLGVMPDLVLDMFINGYYLNVFKTQSTDVNRPYQDKDKRGGIFDAVFTRGDQTTLLTARHDLKNKGLNDISTIIKQELTEGRALALSHTYANVSISHVINLWGADFNAEGNLEAIYVTDSDANASIGMKKYFVGINAHGHVAISAKKIEGENIGAQVLGLFTLSSGKDIWQKLSGGGHHHHHH |  | 0.5 | enzyme concentration giving a dominating F(ab')2 band on SDS-PAGE: 1.9 ng/mL |
| pCART204 (enzyme) MDDYQRNATEAYAKEVPHQITSVWTKGVTPPEQFRYNNEDVIHAPYLAHQGWYDITKAFDGKDNLLCGAATAGNMLHWWFDQNKTEIEAYLSKHPEKQKIIFNNQELFDLKAAIDTKDSQTNSQLFNYFRDKAFPNLSARQLGVMPDLVLDMFINGYYLNVFKTQSTDVNRPYQDKDKRGGIFDAVFTRGDQTTLLTARHDLKNKGLNDISTIIKQELTEGRALALSHTYANVSISHVINLWGADFNAEGNLEAIYVTDSDANASIGMKKYFVGINAHGHVAISAKKIEGENIGAQVLGLFTLSSGKDIWQKLSGGGHHHHHH | 0.94 |  |  |
